Results: patent US7101851 (dated 2006)
Read-outs that look alike come from different tables or passages of the source. Bridges are numbered along the chain shown (N, C = ends). Where no end group is shown, it is not given here.

Columns and labels:
[1] = target: alpha subunit of the human FcεRI receptor expressed on cells (human) (UniProt P12319); assay: IgE inhibition assay (Table 9)
[2] = target: T1, alpha subunit of the human FcεRI receptor expressed on cells (human, UniProt P12319 26-257); assay: inhibition of 125I-IgE binding to CHO cells expressing human FcεRI alpha
T1 construct: whole, on cells; on rat basophil RBL-48 cells in the histamine release assay; also called CHO FcεRI+ cells; cell surface expressed FcεRI
T1 sequence (looked up): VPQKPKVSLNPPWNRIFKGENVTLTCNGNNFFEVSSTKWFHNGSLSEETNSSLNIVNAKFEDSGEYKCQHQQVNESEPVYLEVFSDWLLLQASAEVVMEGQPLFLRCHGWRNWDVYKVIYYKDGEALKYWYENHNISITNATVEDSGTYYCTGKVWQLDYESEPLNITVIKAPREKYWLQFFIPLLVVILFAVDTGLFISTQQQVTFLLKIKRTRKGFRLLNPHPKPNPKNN
Procedure: To determine the ability of peptides to inhibit IgE binding to FcεRI, a cell-based binding assay was used with radiolabeled IgE. Chinese hamster ovary cells expressing the alpha subunit of the human FcεRI receptor were cultured overnight in Falcon 96 well microtiter plates at a concentration of 5 ×10^4 cells per well. The following day the cells were rinsed three times with PBS and then once with F12/DMEM. Peptide stocks were reconstituted in 100 mM Hepes buffered water, pH 7.2, at a concentration of 5 mg/mL. Working concentrations of the peptide were diluted in assay buffer (see below). 75 uL of a desired concentration of peptide was added to the top row of a separate 96 well microtiter plate and serially diluted 1:3 in 50 uL of the assay buffer (F12/DMEM, 1% BSA, 0.05% NaN_3 and 0.025 mM Hepes pH 7.2). Starting concentrations ranged from 50–500 uM. Next, 50 uL of the diluted peptide was transferred to the 96 microtiter well plate containing a monolayer of CHO FcεRI+ cells. […] Cells were
Alanine substitutions in IGE063 (SEQ ID NO:49) were used to assess sidechain contributions. The P9A (IGE070, SEQ ID NO:52) substitution had the largest impact with a >500× reduction in binding. […] Clearly the alanine substitutions at G8, P9, W10, G11 and W12 all had major impacts on binding FcεRI.

[3] = target: T1, alpha subunit of the human FcεRI …; assay: cell-based or functional assay
[4] = target: T2, extracellular domain of the alpha subunit of the human FcεRI (aa 1-176), baculovirus-derived (human, UniProt P12319 26-201); assay: competitive phage ELISA: peptide-phage with soluble FcεRI on FcεRI-coated plate
T2 construct: range 1-176; also called soluble FcεRI; baculovirus-derived FcεRI
T2 sequence (looked up): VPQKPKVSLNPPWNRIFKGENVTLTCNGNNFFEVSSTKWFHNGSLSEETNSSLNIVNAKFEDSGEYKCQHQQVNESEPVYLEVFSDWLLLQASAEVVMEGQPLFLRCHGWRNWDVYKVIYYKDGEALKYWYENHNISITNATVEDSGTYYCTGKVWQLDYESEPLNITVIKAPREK
Procedure: Phage ELISA assays were carried out as described (Lowman, 1998, supra), using Nunc Maxisorp™ plates coated with a 2 μg/mL solution of baculovirus-derived FcεRI. Peptide-phage were pre-incubated for 5–10 min with serial dilutions of receptor, then added to the receptor-coated plate. After incubation for 1 h at room temperature, the plates were washed and an anti-phage HRP-conjugated antibody (Pharmacia) was added. After further incubation for 20 min, plates were again washed and developed using the substrate OPD (Sigma). Optical density at 492 nm was read and plotted as a function of FcεRI concentration to determine an $IC50$ of inhibition by each peptide-phage variant.

FcεRI-IgG [5] = target: T3, FcεRI-IgG (UniProt P12319 26-205); assay: competitive phage ELISA: g3 peptide-phage on immobilized FcεRI-IgG, soluble FcεRI-IgG titrated
T3 construct: extracellular domain; Produced from CHO cells (Genentech); also called FcεRI-Fc; bivalent fusion protein of the extracellular domain of FcεRI and the Fc domain of IgG; not shown: Fc domain of IgG
T3 sequence (looked up): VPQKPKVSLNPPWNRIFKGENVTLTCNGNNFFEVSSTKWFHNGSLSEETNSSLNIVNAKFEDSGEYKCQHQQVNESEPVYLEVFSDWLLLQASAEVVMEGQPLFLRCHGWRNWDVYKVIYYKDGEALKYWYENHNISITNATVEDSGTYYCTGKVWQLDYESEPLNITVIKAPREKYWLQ
Source text: (§1) Peptide sequences from g8p-fused phage clones that specifically bound FcεRI-IgG were transferred onto a g3p-display format for monovalent phage display (Bass et al., *Proteins* 8, 309–314 (1990); Lowman et al., *Biochemistry* 30, 10832–10838 (1991)). An oligonucleotide encoding for each desired peptide with additional 5' and 3' base pair that overlapped with g3 was synthesized. This oligonucleotide was annealed with a g3 single stranded DNA phagemid template. The mutagenesis reaction was transformed into XL-1 Blue *E. coli* and plated on LB-carb+ agar plates. Individual colonies were propagated in 5 mL of 2YT broth, tetracycline, carbenicillin and VCSM13 helper phage (Stratagene). Single stranded DNA was isolated from the purified phage particles and sequenced to confirm the insertion of the phage peptide sequence. 25 mL preparations of g3 phage clones were propagated overnight and purified by PEG precipitation. After resuspension of the phage pellet in 1.0 mL of PBS, it was serially diluted 1/3 and incubated with immobilized FcεRI-IgG 2 ug/mL in a 96 well Maxisorp microtiter plate for 1 hour at room temperature. The wells were washed 10× with PBST then incubated with 100 uL of anti M13 phage HRP as described above. An OD(492) value corresponding to less than 50% binding was selected and the purified phage clones were diluted to yield this normalized level of signal. […] The mixture was then transferred to 96 well microtiter dishes containing immobilized FcεRI-IgG. After a 1-hour incubation period, the plates were washed 10 times, incubated with anti M13-HRP conjugated antibody and developed with OPD as described above.

FcεRI-IgG [6] = target: T3, FcεRI-IgG; assay: as above; remark: listed apart in the source
Procedure: as §1, with “This” for “Peptide sequences from g8p-fused phage clones that specifically bound FcεRI-IgG were transferred onto a g3p-display format for monovalent phage display (Bass et al., *Proteins* 8, 309–314 (1990); Lowman et al., *Biochemistry* 30, 10832–10838 (1991)). An oligonucleotide encoding for each desired peptide with additional 5' and 3' base pair that overlapped with g3 was synthesized. This”
(§2) In addition, stepwise N-terminal and C-terminal truncations of the peptide sequence were constructed. All constructs were made by designing oligonucleotides corresponding to the desired substitution or truncation, with an additional 18 bp of DNA overlapping the peptide or g3 phage DNA sequence. The phage clones were propagated overnight following infection in XL-1 Blue *E. coli*. Purified phage preparations were titered and assayed for binding to immobilized receptor. FcεRI-IgG competition assays were performed as described above.

FcεRI-IgG [7] = target: T3, FcεRI-IgG; assay: competitive phage ELISA; relative to g3c.42
Procedure: as §1, with “This” for “Peptide sequences from g8p-fused phage clones that specifically bound FcεRI-IgG were transferred onto a g3p-display format for monovalent phage display (Bass et al., *Proteins* 8, 309–314 (1990); Lowman et al., *Biochemistry* 30, 10832–10838 (1991)). An oligonucleotide encoding for each desired peptide with additional 5' and 3' base pair that overlapped with g3 was synthesized. This”
as §2

FcεRI-IgG [8] = target: T3, FcεRI-IgG; assay: g3 phage ELISA on immobilized FcεRI-IgG

B1: IGE143 (peptide)
peptide: VQCPHFCYVGGHALCADVCYVGR
modifications: disulfide (positions not given here); also: two intramolecular disulfide bonds, pairing not given here
With B1 the fold loss in activity against its control peptide [1] was greater than 100 fold.

For NLPRCTEGPWGWVCMAAD (disulfide 5-14 (inferred), also called optimized peptide) [synthetic peptide NLPRCTEGPWGWVCMAAD (SEQ ID NO:18)], the IC50 [2] was 1000 nM, the “fold improvement over the … (SEQ ID NO:1) peptide” value [2] was greater than 160 fold and the “fold improvement over the … (SEQ ID NO:8) peptide” value [2] was 40 fold. The “IC50 of inhibition of ragweed induced histamine release (RBL-48 cells, ragweed specific IgE)” value [3] was 10000 nM.

In the case of NLPRCTEGPWGWVCM (disulfide 5-14 (inferred)) [peptide NLPRCTEGPWGWVCM (SEQ ID NO:27)], the “IC50 of inhibition of ragweed induced histamine release (RBL-48 cells, ragweed specific IgE)” value [3] is reported as 13000 nM.

ALCPAVCYV-NH2 (also: antiparallel disulfide-linked homodimer, interchain C3-C7' and C7-C3') [IGE089] was tested, and the “IC50 of inhibition of ragweed induced histamine release (RBL-48 cells, 0.1 nM ragweed specific human IgE)” value [3] was 8000 nM.

B2: IGE120-phage (IVCPRLCYVGGKALCPDVCYV displayed as a fusion to g3p of bacteriophage M13) (peptide)
peptide: IVCPRLCYVGGKALCPDVCYVGGGSGGGGSGSGDY
notes: not shown: g3p of bacteriophage M13, continuing after residue 257 of the mature protein
For B2, the “Relative IC50” value [4] was 1 fold, relative to IGE120-phage.

B3: g3b.1 peptide-phage (peptide)
peptide: NLPRCTEGPWGWVCMAAD
modifications: disulfide 5-14 (inferred); not fully specified
notes: not shown: fused to M13 gene-3 protein (g3p) on phage
B3 was tested, and the IC50 (FcεRI-IgG [5]) was 13 nM.

B4: g3b.3 peptide-phage (peptide)
peptide: NLPTCTEGPWGWVCMAAD
modifications: not fully specified (bridges); cysteine pairing not given here
notes: as for B3
B4 gave an IC50 (FcεRI-IgG [5]) of 7 nM.

B5: g3b.4 peptide-phage (peptide)
peptide: VMPTCTEGPWGWVCMAAD
modifications: not fully specified (bridges); cysteine pairing not given here
notes: as for B3
With B5 the IC50 (FcεRI-IgG [5]) was 7 nM.

B6: g3b.5 peptide-phage (peptide)
peptide: AMAQCTEGPWGWVCMAAD
modifications: not fully specified; cysteine pairing not given here
notes: as for B3
B6 was tested, and the IC50 (FcεRI-IgG [5]) was 10 nM.

B7: g3b.6 peptide-phage (peptide)
peptide: GRAQCTEGPWGWVCMAAD
modifications: not fully specified (bridges); cysteine pairing not given here
notes: as for B3
B7 showed an IC50 (FcεRI-IgG [5]) of 16 nM.

B8: g3b.7 peptide-phage (peptide)
peptide: DLPACTEGPWGWVCMAAD
modifications: not fully specified; cysteine pairing not given here
notes: as for B3
With B8 the IC50 (FcεRI-IgG [5]) was 9 nM.

B9: g3b.8 peptide-phage (peptide)
peptide: GRTECTEGPWGWVCMAAD
modifications: not fully specified (bridges); cysteine pairing not given here
notes: as for B3
Work on B9 yielded an IC50 (FcεRI-IgG [5]) of 14 nM.

B10: g3c.29 peptide-phage (peptide)
peptide: NLPRCTEGPWGWVCMAA
modifications: not fully specified (bridges); cysteine pairing not given here
notes: Monovalent g3p phage display; not shown: fused to M13 gene-3 protein (g3p) on phage
With B10 the IC50 (FcεRI-IgG [6]) was 5 nM and the “Relative (IC50) (fold weaker)” value (FcεRI-IgG [7]) was 1 fold.

B11: g3c.31 peptide-phage (peptide)
peptide: NLPRCTEGPWGWVCMA
modifications: not fully specified (bridges); cysteine pairing not given here
notes: as for B10
B11 was tested, and the IC50 (FcεRI-IgG [6]) was 6.1 nM and the “Relative (IC50) (fold weaker)” value (FcεRI-IgG [7]) was 1 fold.

B12: g3c.34 peptide-phage (peptide)
peptide: NLPRCTEGPWGWVCM
modifications: not fully specified; cysteine pairing not given here
notes: as for B3
B12 was tested, and the IC50 (FcεRI-IgG [6]) was 14.6 nM and the “Relative (IC50) (fold weaker)” value (FcεRI-IgG [7]) was 3 fold.

B13: g3c.1 peptide-phage (peptide)
peptide: LPRCTEGPWGWVCMAAD
modifications: not fully specified; cysteine pairing not given here
notes: as for B10
In the case of B13, the IC50 (FcεRI-IgG [6]) is reported as 3 nM and the “Relative (IC50) (fold weaker)” value (FcεRI-IgG [7]) is reported as 1 fold.

B14: g3c.17 peptide-phage (peptide)
peptide: RCTEGPWGWVCMAAD
modifications: not fully specified; cysteine pairing not given here
notes: as for B10
B14: no binding (FcεRI-IgG [8]).

B15: g3c.21 peptide-phage (peptide)
peptide: CTEGPWGWVCMAAD
modifications: not fully specified; cysteine pairing not given here
notes: as for B10
B15: no binding (FcεRI-IgG [8]).
